Data from PMC5741291 (2017).

Target: Actin (F-actin, skeletal muscle) (Oryctolagus cuniculus, UniProt P68135)
Test: stopped-flow light scattering

Kd: 1.07 µM
B1: Myosin IIIA motor domain (p-huM3AMD) 311-1058 (protein)
chain: MGGTEKARRERIHTKKGNFNRPLISNLKDVDDLATLEILDENTVSEQLEKCYSRDQIYVYVGDILIALNPFQSLGLYSTKHSKLYIGSKRTASPPHIFAMADLGYQSMITYNSDQCIVISGESGAGKTENAHLLVQQLTVLGKANNRTLQEKILQVNNLVEAFGNACTIINDNSSRFGKYLEMKFTSSGAVVGAQISEYLLEKSRVIHQAIGEKNFHIFYYIYAGLAEKKKLAHYKLPENKPPRYLQNDHLRTVQDIMNNSFYKSQYELIEQCFKVIGFTMEQLGSIYSILAAILNVGNIEFSSVATEHQIDKSHISNHTALENCASLLCIRADELQEALTSHCVVTRGETIIRPNTVEKATDVRDAMAKTLYGRLFSWIVNCINSLLKHDSSPSGNGDELSIGILDIFGFENFKKNSFEQLCINIANEQIQYYYNQHVFAWEQNEYLNEDVDARVIEYEDNWPLLDMFLQKPMGLLSLLDEESRFPKATDQTLVEKFEGNLKSQYFWRPKRMELSFGIHHYAGKVLYNASGFLAKNRDTLPTDIVLLLRSSDNSVIRQLVNHPLTKTGNLPHSKTKNVINYQMRTSEKLINLAKGDTGEATRHARETTNMKTQTVASYFRYSLMDLLSKMVVGQPHFVRCIKPNSERQARKYDKEKVLLQLRYTGILETARIRRLGFSHRILFANFIKRYYLLCYKSSEEPRMSPDTCATILEKAGLDNWALGKTKVFLKYYHVEQLNLMRKEAIDK
modifications: phosphorylated by myosin IIIA kinase domain, MgADP
